Results as given in the supplement of paper PMC10567573.

B1: PRIM1 (parent)
chain: CCSSADICPKCWTLMTMAIRIIDR

Variants of: B1
Experiment: protein stability index of a GFP-peptide fusion (GPS, HEK-293T) (PSI 1-6); higher = more stable
Settings: c terminus: a fixed tail appended
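Also: lentivirally expressed fusions sorted by FACS into six bins by GFP to DsRed ratio, PSI derived from sequencing read proportions per bin multiplied by bin number.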

Compared with CCSSADICPKCWTLMTMAICIIDR, CCSSADICPKCWTLMTMAIAIIDR is lower in protein stability index: 1.96 for the first, 1.93 for the second.

First: CCSSADICPKCWTLMTMAIRIIDC
Second: CCSSADICPKCWTLMTMAIRIIDM
The protein stability index of the first is higher: 2.19 for the first, 2.12 for the second.

First: CCSSADICPKCWTLMTMAIRIIDL
Second: CCSSADICPKCWTLMTMAIRIIDD
The protein stability index of the first is lower: 1.91 for the first, 2.09 for the second.

Compared with CCSSADICPKCWTLMTMAIRIIDA, CCSSADICPKCWTLMTMAIRIIDY is lower in protein stability index: 1.89 for the first, 1.78 for the second.

Going from CCSSADICPKCWTLMTMAIRIIDG to CCSSADICPKCWTLMTMAIRIIDV, the protein stability index rises from 1.81 to 2.46.

Going from CCSSADICPKCWTLMTMAIRIIDI to CCSSADICPKCWTLMTMAIRIIDK, the protein stability index falls from 1.69 to 1.25.

First: CCSSADICPKCWTLMTMAIRIIDQ
Second: CCSSADICPKCWTLMTMAIRIIDN
The protein stability index of the first is lower: 1.52 for the first, 1.8 for the second.

Compared with CCSSADICPKCWTLMTMAIRIIDH, CCSSADICPKCWTLMTMAIRIIDF is lower in protein stability index: 1.95 for the first, 1.68 for the second.

Compared with CCSSADICPKCWTLMTMAIRIIDT, CCSSADICPKCWTLMTMAIRIIDW is higher in protein stability index: 1.97 for the first, 2.19 for the second.

Going from CCSSADICPKCWTLMTMAIRIIDP to CCSSADICPKCWTLMTMAIRDIDR, the protein stability index falls from 3.32 to 2.68.

Compared with CCSSADICPKCWTLMTMAIRAIDR, CCSSADICPKCWTLMTMAIRKIDR is higher in protein stability index: 2.2 for the first, 2.35 for the second.

First: CCSSADICPKCWTLMTMAIRTIDR
Second: CCSSADICPKCWTLMTMAIREIDR
The protein stability index of the first is higher: 1.68 for the first, 1.58 for the second.

First: CCSSADICPKCWTLMTMAIRVIDR
Second: CCSSADICPKCWTLMTMAIRPIDR
The protein stability index of the first is lower: 1.67 for the first, 2.28 for the second.

Going from CCSSADICPKCWTLMTMAIRMIDR to CCSSADICPKCWTLMTMAIRWIDR, the protein stability index rises from 1.89 to 1.9.

First: CCSSADICPKCWTLMTMAIRYIDR
Second: CCSSADICPKCWTLMTMAIRHIDR
The protein stability index of the first is lower: 1.73 for the first, 2.23 for the second.

Compared with CCSSADICPKCWTLMTMAIRCIDR, CCSSADICPKCWTLMTMAIRRIDR is higher in protein stability index: 1.94 for the first, 2.75 for the second.

Going from CCSSADICPKCWTLMTMAIRNIDR to CCSSADICPKCWTLMTMAIRGIDR, the protein stability index falls from 2.46 to 2.2.

Going from CCSSADICPKCWTLMTMAIRFIDR to CCSSADICPKCWTLMTMAIRLIDR, the protein stability index rises from 1.39 to 1.49.

First: CCSSADICPKCWTLMTMAIRQIDR
Second: CCSSADICPKCWTLWTMAIRIIDR
The protein stability index of the first is higher: 2.05 for the first, 1.98 for the second.

Going from CCSSADICPKCWTLYTMAIRIIDR to CCSSADICPKCWTLVTMAIRIIDR, the protein stability index rises from 1.63 to 2.96.

Compared with CCSSADICPKCWTLTTMAIRIIDR, CCSSADICPKCWTLSTMAIRIIDR is lower in protein stability index: 2.34 for the first, 1.95 for the second.

Compared with CCSSADICPKCWTLMTMAIRIIFR, CCSSADICPKCWTLMTMAIRIIMR is lower in protein stability index: 1.78 for the first, 1.64 for the second.

Going from CCSSADICPKCWTLMTMAIRIISR to CCSSADICPKCWTLMTMAIRIILR, the protein stability index falls from 2.96 to 2.25.

Compared with CCSSADICPKCWTLMTMAIRIITR, CCSSADICPKCWTLMTMAIRIIHR is lower in protein stability index: 1.82 for the first, 1.69 for the second.

Going from CCSSADICPKCWTLMTMAIRIIPR to CCSSADICPKCWTLMTMAIRIIRR, the protein stability index falls from 2.42 to 1.68.

First: CCSSADICPKCWTLMTMAIRIIWR
Second: CCSSADICPKCWTLMTMAIRIIAR
The protein stability index of the first is lower: 2.15 for the first, 2.29 for the second.

Compared with CCSSADICPKCWTLMTMAIRIIQR, CCSSADICPKCWTLMTMAIRIIVR is higher in protein stability index: 2.09 for the first, 2.31 for the second.

Compared with CCSSADICPKCWTLMTMAIRIINR, CCSSADICPKCWTLMTMAIRIIER is higher in protein stability index: 1.47 for the first, 1.94 for the second.

Going from CCSSADICPKCWTLMTMAIRIIYR to CCSSADICPKCWTLMTMAIRIICR, the protein stability index rises from 1.61 to 2.19.

Compared with CCSSADICPKCWTLMTMAIRIIIR, CCSSADICPKCWTLMTMAIRIIKR is lower in protein stability index: 1.84 for the first, 1.41 for the second.

Compared with CCSSADICPKCWTLMTMRIRIIDR, CCSSADICPKCWTLMTMQIRIIDR is higher in protein stability index: 1.94 for the first, 2.71 for the second.

Compared with CCSSADICPKCWTLMTMGIRIIDR, CCSSADICPKCWTLMTMMIRIIDR is lower in protein stability index: 2.06 for the first, 1.24 for the second.

Going from CCSSADICPKCWTLMTMFIRIIDR to CCSSADICPKCWTLMTMIIRIIDR, the protein stability index rises from 1.64 to 1.79.

Going from CCSSADICPKCWTLMTMEIRIIDR to CCSSADICPKCWTLMTMKIRIIDR, the protein stability index rises from 1.45 to 2.17.

Going from CCSSADICPKCWTLMTMDIRIIDR to CCSSADICPKCWTLMTMHIRIIDR, the protein stability index falls from 2.39 to 2.1.

Going from CCSSADICPKCWTLMTMPIRIIDR to CCSSADICPKCWTLMTMLIRIIDR, the protein stability index rises from 2.1 to 2.3.

First: CCSSADICPKCWTLMTMWIRIIDR
Second: CCSSADICPKCWTLMTMYIRIIDR
The protein stability index of the first is higher: 2.92 for the first, 1.34 for the second.

Going from CCSSADICPKCWTLMTMCIRIIDR to CCSSADICPKCWTLMTMTIRIIDR, the protein stability index falls from 2.45 to 1.56.

Going from CCSSADICPKCWTLMTMVIRIIDR to CCSSADICPKCWTLMTMAPRIIDR, the protein stability index rises from 2.18 to 2.8.

Going from CCSSADICPKCWTLMTMAFRIIDR to CCSSADICPKCWTLMTMAWRIIDR, the protein stability index rises from 1.57 to 1.83.

Going from CCSSADICPKCWTLMTMAVRIIDR to CCSSADICPKCWTLMTMADRIIDR, the protein stability index rises from 2.58 to 2.92.

First: CCSSADICPKCWTLMTMASRIIDR
Second: CCSSADICPKCWTLMTMATRIIDR
The protein stability index of the first is lower: 2.6 for the first, 2.98 for the second.

First: CCSSADICPKCWTLMTMAGRIIDR
Second: CCSSADICPKCWTLMTMAHRIIDR
The protein stability index of the first is lower: 2.21 for the first, 2.8 for the second.

Compared with CCSSADICPKCWTLMTMALRIIDR, CCSSADICPKCWTLMTMAYRIIDR is lower in protein stability index: 2.12 for the first, 2.05 for the second.

Going from CCSSADICPKCWTLMTMANRIIDR to CCSSADICPKCWTLMTMAKRIIDR, the protein stability index falls from 2.89 to 2.77.

Compared with CCSSADICPKCWTLMTMAERIIDR, CCSSADICPKCWTLMTMAQRIIDR is lower in protein stability index: 2.48 for the first, 1.81 for the second.

Going from CCSSADICPKCWTLMTMAMRIIDR to CCSSADICPKCWTLMTMAARIIDR, the protein stability index falls from 2.33 to 1.93.
